Laboratory results taken from paper doi:10.1101/2022.03.10.483757 (bioRxiv, 2022).

Target: the molecule itself
Test: crystal structure

B1: His6-tagged SFPQ-276–535 L534I (domain or fragment, human, UniProt P23246 276-535, looked up)
chain: EGFKANLSLLRRPGEKTYTQRCRLFVGNLPADITEDEFKRLFAKYGEPGEVFINKGKGFGFIKLESRALAEIAKAELDDTPMRGRQLRVRFATHAAALSVRNLSPYVSNELLEEAFSQFGPIERAVVIVDDRGRSTGKGIVEFASKPAARKAFERCSEGVFLLTTTPRPVIVEPLEQLDDEDGLPEKLAQKNPMYQKERETPPRFAQHGTFEYEYSQRWKSLDEMEKQQREQVEKNMKDAKDKLESEMEDAYHEHQANIL
- binding result: binds
